The record followed here is patent US8871909B2, “Antibodies inhibiting c-Met dimerization and uses thereof” (Pierre Fabre Medicament, priority 2007, dated 2014).

Numbering of substitutions follows the chain as printed.

Assay [1] has as its system NCI-H441. The experiment in a line: In vivo combination of 224G11 and Navelbine on NCI-H441 xenograft model (Example 19). Also noted: species or system Athymic nude mice. To be noted: day 41 post first injection. How it is done:
NCI-H441 cells from ATCC were routinely cultured in RPMI 1640 medium, 10% FCS, 1% L-Glutamine. Cells were split two days before engraftment being in exponential phase of growth. Ten million NCI-H441 cells were engrafted to Athymic nude mice. […] Mice were treated i.p. either with a loading dose of 2 mg of 224G11 Mab/mouse and then twice a week with 1 mg of antibody/mouse until Day 38 or with 3 injections of Navelbine® (D5, D12, D19) at 8 mg/kg. A third group administered with the combine treatment was also included. Navelbine® was given by i.p. injections. Tumor volume was measured twice a week and calculated by the formula: π/6×length×width×height and animal weights were monitored every day over the period of Navelbine® treatment. Statistical analysis was performed at each measured time using either a t-test or a Mann-Whitney test. […] Results are represented in FIG. 45.

Assay [2] addresses T1, recombinant c-Met-Extra-Cellular Domain (ECD) fused to an human IgG Fc domain (Homo sapiens, UniProt P08581).
T1 construct: recombinant c-Met-Extra-Cellular Domain (ECD) fused to an human IgG Fc domain (R&D Systems) as antigen; purchased R&D Systems
The experiment in a line: Determination of affinity constants (KD) by Biacore analysis. The assay is classed as binding. The note with it: first column; Fab fragments, 25° C. The text has this:
The binding affinity of purified 11E1 and 224G11 antibodies was investigated by BIAcore X using recombinant c-Met-Extra-Cellular Domain (ECD) fused to an human IgG Fc domain (R&D Systems) as antigen (MW=129 kDa). As both c-Met-Fc fusion proteins and antibodies are bivalent compounds, Fab fragments of mAbs 11E1 and 224G11 (MW=50 kDa) were generated by papain cleavage, purified and used in this assay to avoid interference with avidity parameter. For the assay, an anti-Tag histidine capture antibody was coated on CM5 sensorchips. The running buffer was HBS-EP, the flow rate was 30 μl/min and the test was performed at 25° C. Soluble c-Met (ECD_M1)2-Fc-(HHHHHH)2 antigen was captured on the sensorchip (around 270 RU), and the antibodies to be tested were used in solution as analytes. The sensorship was regenerated using Glycine, HCl pH 1.5 buffer on both flowcells for half a minute.
Background: In SPR one partner is held on a chip, and binding of the other changes the refractive index at the surface.

A further assay addresses T2, HGF-cMet (Homo sapiens, UniProt P08581).
T2 construct: recombinant c-Met-Extra-Cellular Domain (ECD) fused to an human IgG Fc domain
The experiment in a line: HGF-cMet competition assay (ELISA). The assay is classed as binding. To be noted: at high antibody concentration, purified murine antibodies. The text has this:
FIG. 54: HGF-cMet competition assay. In this ELISA-based assay, recombinant Fc-cMET residual binding to plastic coated HGF in the presence of purified murine monoclonal antibodies 11E1, 224G11 and 227H1 was detected with […] and measured at 450 nm;
FIG. 58: HGF-cMet competition assay of 227H1 murine and recombinant antibodies. In this ELISA-based assay, recombinant Fc-cMet residual binding to plastic coated HGF in the presence of the different forms of the 227H1 antibody was detected with a biotinylated unrelated anti-cMet antibody. Purified murine 227H1 monoclonal antibody, chimeric and HZ4VH-derived humanized 227H1-derived recombinant antibodies were tested and compared for their abilities to compete with HGF-cMet binding when measured at 450 nm;
Humanization of the anti-cMet antibodies were performed independently for each chain and sequentially, regarding to the analysed amino acids in each variable domain. The humanization process was evaluated in a first attempt in an ELISA-based binding assay to recombinant Fc-cMet; binding activities the humanized antibodies being compared to the recombinant chimeric antibody. In a second attempt, anti-cMet humanized antibodies were evaluated for their abilities to displace the Fc-cMet binding onto plastic-coated recombinant HGF; this competition assay allowing the direct comparison of murine, chimeric and humanized versions of the anti-cMet antibodies.
These two assays were used to characterize the recombinant chimeric and humanized versions of the murine anti-cMet antibodies. To this end, briefly, anti-cMet variable domains, either murine or humanized, were cloned into LONZA's pCONplus expression vectors series and recombinant IgG1/κ-derived antibodies were expressed in CHO cells. […] Both direct binding and HGF-competition assays were assessed to better characterize recombinant chimeric or humanized versions.
(In general: ELISA stands for enzyme-linked immunosorbent assay.)

In another assay the test system is BxPC3 cells. The experiment in a line: In vitro inhibition of BxPC3 proliferation ([3H]thymidine incorporation). The assay is classed as cell-based. To be noted: BxPC3, in absence of ligand, antibody alone. How it is done: For that purpose 50 000 BxPC3 cells were plated in 96 well plates in RPMI medium, 2 mM L. Glutamine, without SVF. […] After 3 days, cells were pulsed with 0.5 μCi of [^3H]thymidine for 16 hours. The magnitude of [^3H]thymidine incorporated into trichloroacetic acid-insoluble DNA was quantified by liquid scintillation counting. Results were expressed as raw data to really evaluate the intrinsic agonistic effect of each Mab (FIGS. 2A and 2B).
Background: Uptake of a labelled nucleoside into DNA is a usual measure of proliferation.

The subject of the next assay is A549 cells. The experiment in a line: Matrigel invasion assay with A549 cells. The format is cell-based. The note with it: A549, Mab 10 μg/ml, basal (no HGF). How it is done: To evaluate the inhibiting effect of the anti-c-Met antibodies on the invasion process, A549 cells were plated in the upper chamber of BD BioCoat™ Matrigel™ invasion chambers (6.5 mm diameter wells with 8-μm pre size polycarbonate membranes). A459 cells were starved 24 hours before performing the invasion assay. Then 500 000 A549 cells were plated in chemotaxis buffer (DMEM medium, 0.1% BSA, 12 mM Hepes) in the upper well of each chamber, upon the Matrigel coating either with or without the antibody to be tested (final Mab concentration 10 μg/ml). After 1 hour incubation of the plates at 37° C. with 5% CO2, the lower chambers were filled with either growth medium containing 400 ng/ml of rhHGF or with growth medium alone. The chambers were incubated for 48 additional hours at 37° C. with 5% CO2. At the end of this incubation time, cells that remained on upper surface of the filter were gently removed with a cotton swab, cells that migrated to the lower surface of the filter were lysed, stained with CyQuant GR dye buffer (Invitrogen) and counted using a fluorescence reader Berthold Mithras LB940. All conditions were tested as triplicates.

The target of a further assay is T3, SEMA domain (Homo sapiens, UniProt P08581).
T3 construct: the recombinant c-Met-Fc protein and the recombinant SEMA domain
T3 sequence (P08581 27-515 limits assumed): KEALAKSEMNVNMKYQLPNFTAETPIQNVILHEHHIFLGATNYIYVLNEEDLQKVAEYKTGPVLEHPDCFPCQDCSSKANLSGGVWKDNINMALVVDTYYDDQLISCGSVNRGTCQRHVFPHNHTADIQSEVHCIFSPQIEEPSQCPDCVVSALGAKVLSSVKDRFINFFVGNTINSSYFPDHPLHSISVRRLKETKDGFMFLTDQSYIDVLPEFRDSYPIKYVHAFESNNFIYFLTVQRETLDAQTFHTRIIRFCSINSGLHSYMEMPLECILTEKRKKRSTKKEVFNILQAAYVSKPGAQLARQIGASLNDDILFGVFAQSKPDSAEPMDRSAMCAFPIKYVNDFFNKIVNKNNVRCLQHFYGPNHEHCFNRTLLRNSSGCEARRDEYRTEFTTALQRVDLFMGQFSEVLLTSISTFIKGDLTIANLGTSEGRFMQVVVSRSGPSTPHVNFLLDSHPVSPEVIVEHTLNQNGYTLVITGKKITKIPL
The experiment in a line: ELISA recognition of recombinant SEMA domain. The format is binding. How it is done: To characterize the pattern of recognition of the 3 selected antibodies, 3 ELISA have been set up with the recombinant c-Met protein, its monomeric fragment (obtained by cleavage of the recombinant c-Met-Fc protein and the recombinant SEMA domain.
To perform these ELISA the human dimeric c-Met protein (R&D sytems, cat#358MT) is coated at the concentration of 0.7 μg/ml in PBS overnight at 4° C. After saturation of the plates (Costar #3690) with a 0.5% gelatin solution 2 hours at 37° C., hybridoma supernatants are incubated 1 hour at 37° C. Once rinsed with PBS, the anti-mouse HRP-antibody (Jackson ImmunoResearch, catalog #115-035-164) is added to each well at a 1/5000 dilution in ELISA buffer (0.1% gelatin/0.05% Tween 20 in PBS) and the plates incubated for 1 hour at 37° C. […] The reaction is left to occur for 5 min at room temperature. The reaction is stopped by the addition of 50 μl/well of a 1 M H2SO4 solution and read on a plate reader at 450 nm. The same kind of protocol was performed on monomeric c-Met and SEMA domain but in that cases proteins were coated at 5 and 3 μg/ml respectively.

The test system of assay [3] is NCI-H441. The experiment in a line: NCI-H441 xenograft model (Example 11). The text has this: The evaluation of anti-c-met antibodies on the in vivo activity of this non autocrine cell line could give some insights about their potency to impact on c-met dimerization.
The next assay concerns c-Met. The experiment in a line: BRET analysis of c-Met dimerization on c-Met transfected CHO cells. The assay is classed as cell-based. To be noted: CHO cells expressing C-Met-Rluc and C-Met-K1100A-YFP, supernatants. The text has this: The technology BRET, used in the step iii) of the process, is well known by the person skill in the art and will be detailed in the following examples. More particularly, BRET (Bioluminescence Resonance Energy Transfer) is a non-radiative energy transfer occurring between a bioluminescent donor (Renilla Luciferase (Rluc)) and a fluorescent acceptor, a mutant of GFP (Green Fluorescent Protein) or YFP (Yellow fluorescent protein). In the present case EYFP (Enhanced Yellow Fluorescent Protein) was used. The efficacy of transfer depends on the orientation and the distance between the donor and the acceptor. Then, the energy transfer can occur only if the two molecules are in close proximity (1-10 nm). This property is used to generate protein-protein interaction assays. Indeed, in order to study the interaction between two partners, the first one is genetically fused to the Renilla Luciferase and the second one to the yellow mutant of the GFP. Fusion proteins are generally, but not obligatory, expressed in mammalian cells. In presence of its membrane permeable substrate (coelenterazine), Rluc emits blue light. If the GFP mutant is closer than 10 nm from the Rluc, an energy transfer can occur and an additional yellow signal can be detected. The BRET signal is measured as the ratio between the light emitted by the acceptor and the light emitted by the donor. So the BRET signal will increase as the two fusion proteins are brought into proximity or if a conformational change bring Rluc and GFP mutant closer.
Chain of c-Met (P08581 25-307 limits assumed): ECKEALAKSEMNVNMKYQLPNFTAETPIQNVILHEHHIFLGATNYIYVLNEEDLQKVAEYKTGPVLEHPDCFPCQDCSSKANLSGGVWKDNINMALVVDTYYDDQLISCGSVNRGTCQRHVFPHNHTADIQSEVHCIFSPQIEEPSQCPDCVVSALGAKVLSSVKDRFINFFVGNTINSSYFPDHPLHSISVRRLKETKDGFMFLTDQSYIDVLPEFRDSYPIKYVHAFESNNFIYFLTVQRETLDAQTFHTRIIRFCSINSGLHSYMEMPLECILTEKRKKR
Chain of c-Met (P08581 308-932 limits assumed): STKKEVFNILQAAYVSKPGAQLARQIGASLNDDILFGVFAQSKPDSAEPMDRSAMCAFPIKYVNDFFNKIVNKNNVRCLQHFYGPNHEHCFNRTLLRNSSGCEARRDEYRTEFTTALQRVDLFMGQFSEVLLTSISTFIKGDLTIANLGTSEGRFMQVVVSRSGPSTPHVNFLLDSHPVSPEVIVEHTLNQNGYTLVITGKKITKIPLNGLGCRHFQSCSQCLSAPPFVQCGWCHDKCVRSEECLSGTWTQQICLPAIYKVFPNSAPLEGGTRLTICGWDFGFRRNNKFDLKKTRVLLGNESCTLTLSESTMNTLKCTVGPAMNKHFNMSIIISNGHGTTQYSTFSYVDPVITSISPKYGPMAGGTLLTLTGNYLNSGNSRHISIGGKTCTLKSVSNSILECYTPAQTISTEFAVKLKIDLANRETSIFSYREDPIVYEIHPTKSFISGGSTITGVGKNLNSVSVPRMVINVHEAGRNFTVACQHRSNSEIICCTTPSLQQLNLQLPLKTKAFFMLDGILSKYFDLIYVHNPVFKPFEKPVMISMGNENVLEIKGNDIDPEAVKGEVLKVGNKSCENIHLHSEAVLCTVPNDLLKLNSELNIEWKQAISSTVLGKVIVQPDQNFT
Then antibodies inhibiting at least 50% cell proliferation were evaluated as supernatants by BRET analysis on c-Met transfected cells. For that purpose, CHO stable cell lines expressing C-Met-Rluc or C-Met-Rluc and C-Met-K1100A-YFP were generated. Cells were distributed in white 96 well microplates in DMEM-F12/FBS 5% culture medium one or two days before BRET experiments. Cells were first cultured at 37° C. with CO2 5% in order to allow cell attachment to the plate. Cells were then starved with 200 μl DMEM/well overnight. Immediately prior to the experiment, DMEM was removed and cells quickly washed with PBS. Cells were incubated in PBS in the presence or absence of antibodies to be tested or reference compounds, 10 min at 37° C. prior to the addition of coelenterazine with or without HGF in a final volume of 50 μl. […]
BRET ratio has been defined previously [Angers et al., Proc. Natl. Acad. Sci. USA, 2000, 97:3684-3689] as: [(emission at 530 nm)−(emission at 485 nm)×Cf]/(emission at 485 nm), where Cf corresponds to (emission at 530 nm)/(emission at 485 nm) for cells expressing Rluc fusion protein alone in the same experimental conditions. […] For the sake of readability, results are expressed in milliBRET units (mBU); mBU corresponds to the BRET ratio multiplied by 1000.

T1 sequence (P08581 25-932 limits assumed): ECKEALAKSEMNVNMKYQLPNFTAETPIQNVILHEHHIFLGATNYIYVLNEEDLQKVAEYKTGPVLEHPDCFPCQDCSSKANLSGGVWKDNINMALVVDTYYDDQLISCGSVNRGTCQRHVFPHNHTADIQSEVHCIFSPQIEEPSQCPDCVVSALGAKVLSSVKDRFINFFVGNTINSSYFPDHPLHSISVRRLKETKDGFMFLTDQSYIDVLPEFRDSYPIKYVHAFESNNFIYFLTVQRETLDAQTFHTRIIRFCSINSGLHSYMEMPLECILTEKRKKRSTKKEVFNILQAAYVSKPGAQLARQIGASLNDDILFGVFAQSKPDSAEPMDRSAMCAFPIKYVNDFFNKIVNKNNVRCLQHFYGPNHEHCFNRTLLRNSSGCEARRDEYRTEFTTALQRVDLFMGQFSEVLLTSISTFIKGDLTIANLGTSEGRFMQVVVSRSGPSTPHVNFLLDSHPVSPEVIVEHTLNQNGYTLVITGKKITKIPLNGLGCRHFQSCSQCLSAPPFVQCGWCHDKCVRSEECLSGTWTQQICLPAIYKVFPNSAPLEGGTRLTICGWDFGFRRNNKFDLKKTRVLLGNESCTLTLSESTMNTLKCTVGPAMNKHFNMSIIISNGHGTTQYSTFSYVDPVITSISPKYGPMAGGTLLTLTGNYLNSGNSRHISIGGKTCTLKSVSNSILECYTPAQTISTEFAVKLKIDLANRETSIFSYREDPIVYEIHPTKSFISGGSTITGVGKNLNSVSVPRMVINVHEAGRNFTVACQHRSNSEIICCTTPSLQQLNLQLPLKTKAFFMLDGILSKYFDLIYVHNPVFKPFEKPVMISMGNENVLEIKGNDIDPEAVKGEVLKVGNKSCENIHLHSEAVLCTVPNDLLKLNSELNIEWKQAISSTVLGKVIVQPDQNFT
T2 sequence (P08581 25-932 limits assumed): as above

`CCC1=C[C@@H]2CN(C1)Cc1c([nH]c3ccccc13)[C@@](C(=O)OC)(c1cc3c(cc1OC)N(C)[C@H]1[C@@](O)(C(=O)OC)[C@H](OC(C)=O)[C@]4(CC)C=CCN5CC[C@]31[C@@H]54)C2` [Navelbine®, reference compound]: the “reduction of average tumor volume” value with NCI-H441 [1] came to 76%.

B1: 11E1 Fab: Fab fragment of mAb 11E1 generated by papain cleavage (antibody, V domains shown)
VH: QVQLQQSGAELAKPGASVKMSCKASGYTFTSYWMNWVKQRPGQGLEWIGYINPTTGSTDYNQKLKDKATLTADKSSNTAYMQLSSLTSEDSAVYYCAIGGYGSWFAYWGQGTLVTVSA
VL: QIVLTQSPAIMSASPGEKVTLTCSASSSVSSTYLYWYQQKPGSSPKLWIYTTSILASGVPARFSGSGSGTSYSLTISSMETEDAASYFCHQWSSYPFTFGSGTKLDIK
B1: in assay [2], the “Kon1 × 10^−6 [1/M · s]” value is 1.13 ± 0.01 × 10^−6 [1/M · s].

B2: 227H1: murine anti-c-Met monoclonal antibody, IgG1 kappa; heavy chain SEQ ID No. 19, light chain SEQ ID No. 22 (antibody, V domains shown)
VH: EVQLQQSGPELVKPGASMKISCKASGYSFTDYTLNWVKQSHGKTLEWIGLINPYNGGTTYNQKFKGKATLTVDKSSSTAYMELLSLTSEDSAVYYCAREEITKDFDFWGQGTTLTVSS
VL: GIVLTQSPASLAVSLGQRATISCRVSESIDTYGNSFIHWYQQKPGQPPKLLIYRASNLESGIPARFSGSGSRTDFTLTINPVEADDSATYYCQQSNEDPFTFGSGTKLEMK
modifications: mus musculus
Take B2: the “maximum of HGF binding displacement” value in the assay with HGF-cMet is 100%. Besides, the “agonist activity on cell proliferation” value in the assay on BxPC3 cells is “without any agonist activity”. The “agonist effect on invasion, added alone” value in the assay on A549 cells is reported as “No agonist effect”. Also, the “binding to SEMA domain” value in the assay with SEMA domain is “did not bind”. Also, in the assay with NCI-H441 [3], the “inhibition of in vivo growth of NCI-H441” value was “inhibited significantly”. In addition, the inhibition of dimerization with c-Met turned out to be 52%.

B3: 224G11 Fab: Fab fragment of mAb 224G11 generated by papain cleavage (antibody, V domains shown)
VH: EVQLQQSGPELVKPGASVKISCKTSGYIFTAYTMHWVRQSLGESLDWIGGIKPNNGLANYNQKFKGKATLTVDKSSSTAYMDLRSLTSEDSAVYYCARSEITTEFDYWGQGTALTVSS
VL: B2 VL with G1D, V25A, I29V, T31S, G33A, I37M, S87V, N96K, F100L
B3: the “Kon1 × 10^−6 [1/M · s]” value in assay [2] is 2.04 ± 0.01 × 10^−6 [1/M · s].
